From patent US20250242062A1 (VANDERBILT UNIVERSITY, published 2025) come the findings set out here.

The term Kd denotes the constant that tells how readily two partners part at equilibrium. A higher Kd goes with a looser complex.

Assay [1] concerns the target T1, murine COX-2 (mCOX-2) enzyme (murine, UniProt Q05769 18-604).
T1 sequence (looked up): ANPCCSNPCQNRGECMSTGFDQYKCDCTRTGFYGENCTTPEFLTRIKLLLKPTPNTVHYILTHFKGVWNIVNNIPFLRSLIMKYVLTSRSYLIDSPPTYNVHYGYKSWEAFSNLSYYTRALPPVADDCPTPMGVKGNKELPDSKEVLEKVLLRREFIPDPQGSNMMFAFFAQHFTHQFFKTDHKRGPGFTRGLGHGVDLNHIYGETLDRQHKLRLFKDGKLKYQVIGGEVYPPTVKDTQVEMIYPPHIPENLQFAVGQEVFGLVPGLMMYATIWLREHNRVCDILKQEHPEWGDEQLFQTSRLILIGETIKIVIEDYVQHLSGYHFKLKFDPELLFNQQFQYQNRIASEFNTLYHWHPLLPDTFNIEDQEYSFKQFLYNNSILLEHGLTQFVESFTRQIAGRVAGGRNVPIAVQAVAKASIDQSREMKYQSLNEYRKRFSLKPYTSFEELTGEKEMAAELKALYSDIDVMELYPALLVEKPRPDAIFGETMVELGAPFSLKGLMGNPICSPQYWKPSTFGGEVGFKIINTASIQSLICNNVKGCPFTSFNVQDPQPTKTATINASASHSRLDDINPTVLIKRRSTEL
The assay is described as follows: cell-based or functional assay.

For assay [2], the target named is T1, murine COX-2 (mCOX-2) enzyme. The assay is described as follows: microscale thermophoresis (MST), apo mCOX-2; apo mCOX-2 as target. As for the experimental part:
The dissociation constant of A7 and F9 nanobodies while bound to apo mCOX-2 was evaluated by a microscale thermophoresis (MST) assay (Bartoschik, T, et al. Sci Rep 2018 8:4977). […] Further, the COX-2 inhibitory activity of A7 and F9 nanobodies was evaluated in the production of prostaglandin E2 (PGE2) and prostaglandin D2 (PGD2) using arachidonic acid (AA) as a substrate. In this assay, purified mouse COX-2 expressed in baculovirus-infected Sf9 cells was used. Purified COX-2 was incubated with varying concentrations of test nanobodies followed by the addition of hematin and AA, respectively. The PGE2 and PGD2 products in the reaction was quantified by a tandem liquid chromatography mass spectroscopy (LC-MS/MS) analysis.
For orientation: Microscale thermophoresis detects binding through changes in fluorescence in a small temperature gradient.

B1: A7 nanobody (VHH)
VHH: QVQLQESGGGLVQPGGSLKLSCAASGSIFSINVMGWYRQAPGKQRELVATITSGGTTNYADSVKGRFTISRDNAKDTLYLQMNSLKPEDTAVYYCNAKDLGGSSWFSEFDYWGQGTQVTVGP
notes: Alpaca-derived VHH expressed in E. coli and purified by SEC; The stated molecular weight is 15.24 kDa; also called native A7 nanobody clone
With B1, the “IC50, inhibition of PGE2 and PGD2 production from arachidonic acid by purified mouse COX-2 (LC-MS/MS)” value in assay [1] came out at 6.8 nM. The molecule also displayed a dissociation constant Kd in assay [2] of 2.4 nM.
